Data taken from patent US20040137580A1.
Values belong to the molecule of their own block, whether it stands above or below them.

Experiments:
[1] = biological target: PSGL1/mIgG2b fusion protein produced in COS-7 m6 cells without cotransfection of the α1,3 GT cDNA (human; mouse) (UniProt Q14242); test: depletion of COS supernatant on beads, remaining fusion protein by anti-mouse IgG Fc sandwich ELISA
[2] = biological target: PSGL-1/mIgG2b made in CHO-K1 clone 5L4-1 (with porcine α1,3GalT) (human; mouse) (UniProt Q14242); test: sandwich ELISA, fusion protein captured by goat anti-mouse IgG Fc, detected with peroxidase-conjugated lectin or anti-mouse IgG Fc
[3] = biological target: PSGL-1/mIgG2b made in 293T clone 14 (with porcine α1,3GalT) (human; mouse) (UniProt Q14242); test: as above
[4] = biological target: PSGL-1/mIgG2b made in CHO-K1 clone C2-1-9 (with porcine α1,3GalT and C2 GnT1) (human; mouse) (UniProt Q14242); test: as above
[5] = biological target: PSGL-1/mIgG2b made in COS7 m6 clone 5I (with porcine α1,3GalT) (human; mouse) (UniProt Q14242); test: as above
[6] = biological target: anti-pig reactive antibodies of human blood group AB serum; test: cell-based or functional assay

amount of PSGL1/mIgG2b absorbed onto 50 µl packed beads from 2 ml of supernatant [1]: 260 ng
amount of PSGL1/mIgG2b absorbed onto 50 µl packed beads from 4 ml of supernatant [1]: 290 ng
amount of PSGL1/mIgG2b absorbed onto 50 µl packed beads from 8 ml of supernatant [1]: 360 ng
Molecule: goat anti-mouse IgG agarose beads (A-6531, Sigma) (antibody)

fold increase in the relative O.D. (GSA-reactivity/anti-mouse IgG reactivity) against PSGL-1/mIgG2b made in CHO without the α1,3GalT [2]: 1.8 fold
fold increase in the relative O.D. (GSA-reactivity/anti-mouse IgG reactivity) against PSGL-1/mIgG2b made in 293T without the α1,3GalT [3]: 3.1 fold
fold increase of α-Gal epitope density (relative O.D. GSA-reactivity/anti-mouse IgG reactivity) against PSGL-1/mIgG2b made in CHO-K1 cells without the α1,3GalT [4]: 13 fold
fold increase of α-Gal epitope density (relative O.D. GSA-reactivity/anti-mouse IgG reactivity) against PSGL-1/mIgG2b made with the α1,3GalT alone [4]: 7.4 fold
fold increase in the relative O.D. (GSA-reactivity/anti-mouse IgG reactivity) against PSGL-1/mIgG2b made in COS without the α1,3GalT [5]: 5.3 fold
Molecule: peroxidase-conjugated Bandereia simplicifolia isolectin B4 (L-5391, Sigma)

B1: PSGL-1/mIgG2b made in COS7 m6 clone 5I (with porcine α1,3GalT) (Fc fusion, human, UniProt Q14242 18-320, looked up, not shown: a dimerising Fc or GST)
chain: LQLWDTWADEAEKALGPLLARDRRQATEYEYLDYDFLPETEPPEMLRNSTDTTPLTGPGTPESTTVEPAARRSTGLDAGGAVTELTTELANMGNLSTDSAAMEIQTTQPAATEAQTTQPVPTEAQTTPLAATEAQTTRLTATEAQTTPLAATEAQTTPPAATEAQTTQPTGLEAQTTAPAAMEAQTTAPAAMEAQTTPPAAMEAQTTQTTAMEAQTTAPEATEAQTTQPTATEAQTTPLAAMEALSTEPSATEALSMEPTTKRGLFIPFSVSSVTHKGIPMAASNLSVNYPVGAPDHISVKQC
modifications: α-Gal substituted glycans (COS7 m6 cells co-expressing porcine α1,3GalT)
PAEC cytotoxicity of blood group AB serum after adsorption [6]: 12%
amount of adsorber needed to reduce the PAEC cytotoxicity of human AB serum to 40% of maximum, against CHO cell-made PSGL-1/mIgG2b [6]: 16 times less

B2: PSGL-1/mIgG2b made in CHO-K1 clone 5L4-1 (with porcine α1,3GalT) (Fc fusion, human, UniProt Q14242 18-320, looked up, not shown: a dimerising Fc or GST)
chain: LQLWDTWADEAEKALGPLLARDRRQATEYEYLDYDFLPETEPPEMLRNSTDTTPLTGPGTPESTTVEPAARRSTGLDAGGAVTELTTELANMGNLSTDSAAMEIQTTQPAATEAQTTQPVPTEAQTTPLAATEAQTTRLTATEAQTTPLAATEAQTTPPAATEAQTTQPTGLEAQTTAPAAMEAQTTAPAAMEAQTTPPAAMEAQTTQTTAMEAQTTAPEATEAQTTQPTATEAQTTPLAAMEALSTEPSATEALSMEPTTKRGLFIPFSVSSVTHKGIPMAASNLSVNYPVGAPDHISVKQC
modifications: glycans of CHO-K1 cells co-expressing porcine α1,3GalT
amount of adsorber needed to reduce the PAEC cytotoxicity of human AB serum to 40% of maximum [6]: 9.1 µg
lowest PAEC cytotoxicity of blood group AB serum reached after adsorption [6]: > 36%

B3: PSGL-1/mIgG2b made in CHO-K1 clone C2-1-9 (with porcine α1,3GalT and C2 GnT1) (Fc fusion, human, UniProt Q14242 18-320, looked up, not shown: a dimerising Fc or GST)
chain: LQLWDTWADEAEKALGPLLARDRRQATEYEYLDYDFLPETEPPEMLRNSTDTTPLTGPGTPESTTVEPAARRSTGLDAGGAVTELTTELANMGNLSTDSAAMEIQTTQPAATEAQTTQPVPTEAQTTPLAATEAQTTRLTATEAQTTPLAATEAQTTPPAATEAQTTQPTGLEAQTTAPAAMEAQTTAPAAMEAQTTPPAAMEAQTTQTTAMEAQTTAPEATEAQTTQPTATEAQTTPLAAMEALSTEPSATEALSMEPTTKRGLFIPFSVSSVTHKGIPMAASNLSVNYPVGAPDHISVKQC
modifications: core 2 branched O-glycans with terminal Galα1,3Gal (Hex-HexNol-HexN-Hex-Hex; NeuAc-Hex-HexNol-HexN-Hex-Hex; NeuGc-Hex-HexNol-HexN-Hex-Hex)
amount of adsorber needed to reduce the PAEC cytotoxicity of human AB serum to 40% of maximum, against PSGL-1/mIgG2b made in CHO clone 5L4-1 [6]: 10 times less

B4: PSGL-1/mIgG2b made in 293T clone 14 (with porcine α1,3GalT) (Fc fusion, human, UniProt Q14242 18-320, looked up, not shown: a dimerising Fc or GST)
chain: LQLWDTWADEAEKALGPLLARDRRQATEYEYLDYDFLPETEPPEMLRNSTDTTPLTGPGTPESTTVEPAARRSTGLDAGGAVTELTTELANMGNLSTDSAAMEIQTTQPAATEAQTTQPVPTEAQTTPLAATEAQTTRLTATEAQTTPLAATEAQTTPPAATEAQTTQPTGLEAQTTAPAAMEAQTTAPAAMEAQTTPPAAMEAQTTQTTAMEAQTTAPEATEAQTTQPTATEAQTTPLAAMEALSTEPSATEALSMEPTTKRGLFIPFSVSSVTHKGIPMAASNLSVNYPVGAPDHISVKQC
modifications: α-Gal substituted glycans (293T cells co-expressing porcine α1,3GalT)
PAEC cytotoxicity of blood group AB serum after adsorption [6]: 25%
amount of adsorber needed to reduce the PAEC cytotoxicity of human AB serum to 40% of maximum, against CHO cell-made PSGL-1/mIgG2b [6]: 4 times less
